Experimental data as given in patent US9730926B2, “Combination therapy using bispecific anti-c-Met/anti-EGFR antibody and c-Src inhibitor” (Samsung Electronics Co., Ltd., priority 2014, dated 2017).

How the values were obtained:
[1] = system: EGFR T790M mutated non-small cell lung cancer cell line (H1975); details: FIGS. 17 to 19; for cell proliferation, co-treatment with bispecific antibody compared to c-Src inhibitor alone: c-Src inhibitor 10, 100, 1000 nM + 5 μg/ml ME22S, HGF and EGF 100 ng/ml, 72 hours; for dose dependence of the synergistic effect by co-treatment with bispecific antibody: c-Src inhibitor concentration varied, ME22S 5 μg/ml
Experimental: (§1) The cells were stored in RPMI1640 medium (GIBCO) containing 10%(v/v) FBS under the conditions of 5% CO2 and 37° C., until being used in the following experiments. A cell proliferation assay was performed as follows.
(§2) In detail, RPMI1640 medium (GIBCO) containing 10% FBS was added to 96-well plate.
(§3) At 72 hours after the treatment, 10 μL of Cell Counting Kit-8 solution (Dojindo Molecular Technologies, Gaithersburg, Md.) was added to each well, and left at room temperature for 2 hours.

[2] = system: K-Ras mutated colorectal cancer cell line (HCT-116 cell line); experiment: Cell proliferation assay (Cell Counting Kit-8), HCT-116 cell line; assay type: cell-based; details: for cell proliferation, co-treatment with ME22S compared to c-Src inhibitor alone: dasatinib 10-1000 nM or saracatinib 10-10000 nM + 5 μg/ml ME22S
Experimental: as §1
RPMI1640 medium (GIBCO) containing 10% FBS was added to 96-well plate.
as §3, §2

[3] = system: K-Ras mutated colorectal cancer cell line (Lovo cell line); experiment: Cell proliferation assay (Cell Counting Kit-8), Lovo cell line; assay type: cell-based; details: for cell proliferation, co-treatment with ME22S compared to c-Src inhibitor alone: c-Src inhibitor 10, 100, 1000 nM + 5 μg/ml ME22S
[4] = system: K-Ras mutated colorectal cancer cell line (Lovo cell line); experiment: as above; assay type: cell-based; details: FIG. 4, FIG. 5
Experimental: To examine the cell proliferation inhibition effect depending on the amount of a bispecific anti-c-Met/anti-EGFR antibody, the experiment was carried out by varying the amount of the treated bispecific anti-c-Met/anti-EGFR antibody with fixing the amount of dasatini as 30 nM.
This experiment was conducted referring to the experiment of the cell proliferation test depending on the amount of the antibody as described above, except the amount of the treated antibody and the c-Src inhibitor.

[5] = system: EGFR T790M mutated non-small cell lung cancer cell line (H820 cell line); experiment: Cell proliferation assay (Cell Counting Kit-8), H820 cell line; assay type: cell-based
Text: The H820 cell line was obtained from ATCC. The H820 cells comprise EGFR T790M mutation.

[6] = 5 μg/ml alone, HGF and EGF 100 ng/ml, 72 hours

Molecule: COc1cc(Nc2c(C#N)cnc3cc(OCCCN4CCN(C)CC4)c(OC)cc23)c(Cl)cc1Cl [bosutinib, 4-[(2,4-dichloro-5-methoxyphenyl)amino]-6-methoxy-7-[3-(4-methylpiperazin-1-yl)propoxy]quinoline-3-carbonitrile]
- cell proliferation, co-treatment with bispecific antibody compared to c-Src inhibitor alone [1]: significantly synergistic therapeutic effect
- dose dependence of the synergistic effect by co-treatment with bispecific antibody [1]: generally dose-dependent for the c-Src inhibitor

Molecule: CN1CCN(CCOc2cc(OC3CCOCC3)c3c(Nc4c(Cl)ccc5c4OCO5)ncnc3c2)CC1 [saracatinib, 4-Quinazolinamine, N-(5-Chloro-1,3-benzodioxol-4-yl)-7-[2-(4-methyl-1-piperazinyl)ethoxy]-5-[(tetrahydro-2H-pyran-4-yl)oxy]-4-quinazolinamine]
- dose dependence of the synergistic effect by co-treatment with ME22S ([2]; c-Src inhibitor concentration varied, ME22S 5 μg/ml, FIG. 14, FIG. 15): generally dose-dependent for the c-Src inhibitor
- cell proliferation, co-treatment with ME22S compared to c-Src inhibitor alone ([2]; 72 hours, FIG. 14, FIG. 15): significantly synergistic therapeutic effect
- cell proliferation, co-treatment with bispecific antibody compared to c-Src inhibitor alone [1]: significantly synergistic therapeutic effect
- dose dependence of the synergistic effect by co-treatment with bispecific antibody [1]: generally dose-dependent for the c-Src inhibitor
- cell proliferation, co-treatment with ME22S compared to c-Src inhibitor alone ([3]; 72 hours, FIG. 6, FIG. 7): more synergistic therapeutic effect
- dose dependence of the synergistic effect by co-treatment with ME22S ([3]; c-Src inhibitor concentration varied, ME22S fixed at 5 μg/ml, FIG. 6, FIG. 7): generally dose-dependent for the c-Src inhibitor

Molecule: Cc1nc(Nc2ncc(C(=O)Nc3c(C)cccc3Cl)s2)cc(N2CCN(CCO)CC2)n1 [dasatinib, N-(2-chloro-6-methylphenyl)-2-[[6-[4-(2-hydroxyethyl)-1-piperazinyl]-2-methyl-4-pyrimidinyl]amino]-5-thiazole carboxamide monohydrate, reference compound]
- cell proliferation, co-treatment with ME22S compared to c-Src inhibitor alone ([2]; 72 hours, FIG. 14, FIG. 15): significantly synergistic therapeutic effect
- cell proliferation, co-treatment with ME22S compared to c-Src inhibitor alone ([3]; 72 hours, FIG. 6, FIG. 7): more synergistic therapeutic effect

B1: ME-19: bispecific anti-c-Met/anti-EGFR antibody: anti-EGFR DARPin fused to C-terminus of L3-1Y heavy chain through (G4S)2 linker (antibody)
heavy: EVQLVESGGGLVQPGGSLRLSCAASGFTFTDYYMSWVRQAPGKGLEWLGFIRNKANGYTTEYSASVKGRFTISRDNSKNTLYLQMNSLRAEDTAVYYCARDNWFAYWGQGTLVTVSSASTKGPSVFPLAPCSRSTSESTAALGCLVKDYFPEPVTVSWNSGALTSGVHTFPAVLQSSGLYSLSSVVTVPSSNFGTQTYTCNVDHKPSNTKVDKTVERKCCVECPPCPAPPVAGPSVFLFPPKPKDTLMISRTPEVTCVVVDVSHEDPEVQFNWYVDGVEVHNAKTKPREEQFNSTFRVVSVLTVVHQDWLNGKEYKCKVSNKGLPAPIEKTISKTKGQPREPQVYTLPPSREEMTKNQVSLTCLVKGFYPSDIAVEWESNGQPENNYKTTPPMLDSDGSFFLYSKLTVDKSRWQQGNVFSCSVMHEALHNHYTQKSLSLSPGKGGGGSGGGGSDLGKKLLEAARAGQDDEVRILMANGADVNADDTWGWTPLHLAAYQGHLEIVEVLLKNGADVNAYDYIGWTPLHLAADGHLEIVEVLLKNGADVNASDYIGDTPLHLAAHNGHLEIVEVLLKHGADVNAQDKFGKTAFDISIDNGNEDLAEILQ
light: DIQMTQSPSSLSASVGDRVTITCKSSQSLLASGNQNNYLAWYQQKPGKAPKMLIIWASTRVSGVPSRFSGSGSGTDFTLTISSLQPEDFATYYCQQSYSRPYTFGQGTKVEIKRTVAAPSVFIFPPSDEQLKSGTASVVCLLNNFYPREAKVQWKVDNALQSGNSQESVTEQDSKDSTYSLSSTLTLSKADYEKHKVYACEVTHQGLSSPVTKSFNRGEC
- cell proliferation, co-treatment with dasatinib compared to bispecific antibody alone ([4]; ME-19 10, 1, 0.1, 0.01 μg/ml or ME22S 1, 0.1, 0.01 μg/ml + 30 nM dasatinib, 72 hours): more synergistic therapeutic effect
- dose dependence of the synergistic effect by co-treatment with dasatinib ([4]; antibody concentration varied, dasatinib fixed at 30 nM): dose-dependent for the antibody
- cell proliferation, co-treatment with c-Src inhibitor compared to either alone ([5]; ME19 0.01, 0.1, 1 or 10 μg/ml + dasatinib 30 nM, 72 hours, FIG. 10): more considerable inhibition effect on the cell proliferation
- dose dependence of the inhibition effect on cell proliferation ([5]; ME19 concentration varied, dasatinib 30 nM, FIG. 10): generally dose-dependent for the bispecific anti-c-Met/anti-EGFR antibody
- cell proliferation, bispecific antibody + dasatinib compared to co-treatment of dasatinib, L3-1Y and erbitux ([2]; 5 μg/ml ME19 + 5 nM dasatinib, 72 hours, FIG. 13): considerable inhibition effect on cancer cell proliferation
- cell proliferation, co-treatment with dasatinib compared to each of the drugs ([2]; 5 μg/ml ME19 + 5 nM dasatinib, HGF and EGF 100 ng/ml, 72 hours, FIG. 13): more considerable cell proliferation inhibition effect
- cell proliferation, bispecific antibody + dasatinib compared to co-treatment of dasatinib, L3-1Y and erbitux ([3]; 5 μg/ml antibody + 30 nM dasatinib, 72 hours): considerable inhibition effect on cancer cell proliferation
- cell proliferation, combination with dasatinib compared to the drugs alone ([3]; 5 μg/ml antibody + 30 nM dasatinib, HGF and EGF 100 ng/ml, 72 hours, FIG. 2, FIG. 3): considerable inhibitory effect on the cell proliferation

B2: L3-1Y: anti-c-Met antibody: huAbF46-H4-A1 variable regions, human IgG2 hinge and constant region, human kappa light chain (antibody)
heavy: EVQLVESGGGLVQPGGSLRLSCAASGFTFTDYYMSWVRQAPGKGLEWLGFIRNKANGYTTEYSASVKGRFTISRDNSKNTLYLQMNSLRAEDTAVYYCARDNWFAYWGQGTLVTVSSASTKGPSVFPLAPCSRSTSESTAALGCLVKDYFPEPVTVSWNSGALTSGVHTFPAVLQSSGLYSLSSVVTVPSSNFGTQTYTCNVDHKPSNTKVDKTVERKCCVECPPCPAPPVAGPSVFLFPPKPKDTLMISRTPEVTCVVVDVSHEDPEVQFNWYVDGVEVHNAKTKPREEQFNSTFRVVSVLTVVHQDWLNGKEYKCKVSNKGLPAPIEKTISKTKGQPREPQVYTLPPSREEMTKNQVSLTCLVKGFYPSDIAVEWESNGQPENNYKTTPPMLDSDGSFFLYSKLTVDKSRWQQGNVFSCSVMHEALHNHYTQKSLSLSPGK
light: DIQMTQSPSSLSASVGDRVTITCKSSQSLLASGNQNNYLAWYQQKPGKAPKMLIIWASTRVSGVPSRFSGSGSGTDFTLTISSLQPEDFATYYCQQSYSRPYTFGQGTKVEIKRTVAAPSVFIFPPSDEQLKSGTASVVCLLNNFYPREAKVQWKVDNALQSGNSQESVTEQDSKDSTYSLSSTLTLSKADYEKHKVYACEVTHQGLSSPVTKSFNRGEC
- cell proliferation, L3-1Y in combination with erbitux ([5]; 5 μg/ml L3-1Y + 5 μg/ml erbitux, 72 hours): increased cell proliferation
- cell proliferation, antibody alone [5, 6]: increased cell proliferation
- cell proliferation, L3-1Y in combination with erbitux ([3]; 5 μg/ml L3-1Y + 5 μg/ml erbitux, HGF and EGF 100 ng/ml, 72 hours): increased cell proliferation
- cell proliferation, antibody alone [3, 6]: increased cell proliferation
